Experimental findings from PMC3950718, “The RNA helicase RHAU (DHX36) suppresses expression of the transcription factor PITX1” are described below.

The target in data set [1] is T1, RHAU53-105 (UniProt Q9H2U1 53-105).
T1 sequence: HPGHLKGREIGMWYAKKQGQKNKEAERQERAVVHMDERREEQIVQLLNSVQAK
The data set is described as follows: EMSA; 150 nM RNA, 0-750 nM protein; qualitatively lower affinity than full length; RNA in 50 mM Tris pH 7.6, 100 mM KCl; EMSA as in ref 12/36 (150 nM RNA, 0-750 nM protein); pull-down binding buffer 50 mM Tris-acetate pH 7.8, 100 mM KCl, 10 mM NaCl, 3 mM MgCl2, 70 mM glycine, 10% glycerol, room temperature. The following applies: protein: recombinant; label: 5' biotin; G-quadruplex. A general note: In EMSA bound probe runs differently from free probe, usually more slowly.

Data set [2] addresses T2, RHAU (full length) (UniProt Q9H2U1 1-1008).
T2 sequence: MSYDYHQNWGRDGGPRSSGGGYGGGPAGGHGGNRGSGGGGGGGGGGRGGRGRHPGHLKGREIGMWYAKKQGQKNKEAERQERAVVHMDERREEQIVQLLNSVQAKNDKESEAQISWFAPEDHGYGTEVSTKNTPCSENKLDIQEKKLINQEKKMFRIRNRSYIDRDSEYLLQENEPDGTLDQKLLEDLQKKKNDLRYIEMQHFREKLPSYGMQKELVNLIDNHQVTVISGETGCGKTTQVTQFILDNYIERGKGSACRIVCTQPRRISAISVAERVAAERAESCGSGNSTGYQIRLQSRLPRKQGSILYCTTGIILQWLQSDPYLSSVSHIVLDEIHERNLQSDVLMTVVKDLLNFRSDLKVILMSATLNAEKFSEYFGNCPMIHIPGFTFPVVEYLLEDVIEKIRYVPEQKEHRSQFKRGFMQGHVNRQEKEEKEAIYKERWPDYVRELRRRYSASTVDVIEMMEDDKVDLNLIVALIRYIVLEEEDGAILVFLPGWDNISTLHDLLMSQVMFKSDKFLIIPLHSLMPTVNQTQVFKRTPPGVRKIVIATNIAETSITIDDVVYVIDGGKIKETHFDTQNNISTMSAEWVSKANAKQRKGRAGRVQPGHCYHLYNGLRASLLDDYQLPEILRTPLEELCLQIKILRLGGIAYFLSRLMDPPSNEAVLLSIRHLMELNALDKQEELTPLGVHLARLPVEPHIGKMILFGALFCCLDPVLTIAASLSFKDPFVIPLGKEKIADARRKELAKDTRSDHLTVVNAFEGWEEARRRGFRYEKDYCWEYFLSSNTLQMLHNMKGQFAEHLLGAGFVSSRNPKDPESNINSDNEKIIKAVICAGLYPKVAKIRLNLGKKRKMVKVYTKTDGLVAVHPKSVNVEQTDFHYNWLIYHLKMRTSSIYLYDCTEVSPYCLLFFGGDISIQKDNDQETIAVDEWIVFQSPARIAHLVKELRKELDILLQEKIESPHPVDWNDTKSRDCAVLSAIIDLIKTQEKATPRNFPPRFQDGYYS
The data set is described as follows: EMSA; 150 nM RNA, 0-750 nM protein; RNA in 50 mM Tris pH 7.6, 100 mM KCl; EMSA as in ref 12/36 (150 nM RNA, 0-750 nM protein); pull-down binding buffer 50 mM Tris-acetate pH 7.8, 100 mM KCl, 10 mM NaCl, 3 mM MgCl2, 70 mM glycine, 10% glycerol, room temperature. The settings on record: protein: recombinant, label: 5' biotin.

For data set [3], the target named is T3, 6xHis-RHAU53-105 (UniProt Q9H2U1 53-105).
T3 sequence: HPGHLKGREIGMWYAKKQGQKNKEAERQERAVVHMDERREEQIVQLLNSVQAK
The data set is described as follows: EMSA; 150 nM RNA; affinity similar to untagged; RNA in 50 mM Tris pH 7.6, 100 mM KCl; EMSA as in ref 12/36 (150 nM RNA, 0-750 nM protein); pull-down binding buffer 50 mM Tris-acetate pH 7.8, 100 mM KCl, 10 mM NaCl, 3 mM MgCl2, 70 mM glycine, 10% glycerol, room temperature. The following applies: protein: recombinant; tags: 6xHis; label: 5' biotin; G-quadruplex.

Data set [4] concerns the target T1, RHAU53-105. The data set is described as follows: EMSA; 150 nM RNA, 0-750 nM protein; RNA in 50 mM Tris pH 7.6, 100 mM KCl; EMSA as in ref 12/36 (150 nM RNA, 0-750 nM protein); pull-down binding buffer 50 mM Tris-acetate pH 7.8, 100 mM KCl, 10 mM NaCl, 3 mM MgCl2, 70 mM glycine, 10% glycerol, room temperature. The settings on record: protein: recombinant; label: 5' biotin; no quadruplex (no NMM staining).

For data set [5], the target named is T3, 6xHis-RHAU53-105. Nature of the data set: EMSA; RNA in 50 mM Tris pH 7.6, 100 mM KCl; EMSA as in ref 12/36 (150 nM RNA, 0-750 nM protein); pull-down binding buffer 50 mM Tris-acetate pH 7.8, 100 mM KCl, 10 mM NaCl, 3 mM MgCl2, 70 mM glycine, 10% glycerol, room temperature. The following applies: protein: recombinant; tags: 6xHis; label: 5' biotin; no quadruplex (no NMM staining).

In the case of GUUGGGGCGGGCGUUGGGUUUGGGGGGACG (structured_RNA) [PITX1 Q2], the binding result in data set [1] and in data set [2] (G-quadruplex) was “binds” throughout.

For the molecule GAGCGGGGAAGGGCGCGGGCGCGGGCGCGG (structured_RNA) [PITX1 Q1], the binding result in data set [1], in data set [2] (G-quadruplex) and in data set [3] was “binds” each time.

In the case of AGCGGGCAGUGCGGGCCUGGCGGGAGGUGGGGGAGG (structured_RNA) [PITX1 Q3], the binding result in data set [1] and in data set [2] (G-quadruplex) was “binds” each time.

With GAGCGCGGAAGCGCGCGCGCGCGCGCGCGG (ssRNA) [PITX1 Q1Mut], the binding result in data set [2] (no quadruplex (no NMM staining)), in data set [4] and in data set [5] was “no binding” in each case.
